Experimental data: patent publication US20230348603A1 (VERSEAU THERAPEUTICS, published 2023)

Columns and labels:
[1] = molecular target: T1, Cynomolgus Monkey VSIG4-L-His (cynomolgus monkey); test: SPR (FJB)
T1 construct: ECD with His tag; also called cyVSIG4-L; cyno VSIG4-L-His
T1 chain: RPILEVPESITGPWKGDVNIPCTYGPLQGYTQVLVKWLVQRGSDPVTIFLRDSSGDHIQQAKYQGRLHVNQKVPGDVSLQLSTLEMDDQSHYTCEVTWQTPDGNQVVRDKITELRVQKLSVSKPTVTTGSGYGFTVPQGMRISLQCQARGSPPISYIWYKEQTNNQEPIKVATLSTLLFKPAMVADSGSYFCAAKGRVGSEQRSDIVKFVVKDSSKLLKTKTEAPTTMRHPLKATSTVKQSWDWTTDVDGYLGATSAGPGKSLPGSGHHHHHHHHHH

Human VSIG4-L-Fc [2] = molecular target: T2, Human VSIG4-L-Fc (human); test: ligand blocking of C3b, IgG
T2 construct: also called hVSIG4-L-Fc; hVSIG4-L

Human VSIG4-L-Fc [3] = molecular target: T2, Human VSIG4-L-Fc; test: ligand blocking of iC3b, IgG
Human VSIG4-S-His = molecular target: T3, Human VSIG4-S-His (human, UniProt Q9Y279 20-283); test: BLI (Octet), IgG on AHC sensor
T3 construct: short isoform ECD with His tag; also called hVSIG4-S; VISG4-S-His
T3 sequence: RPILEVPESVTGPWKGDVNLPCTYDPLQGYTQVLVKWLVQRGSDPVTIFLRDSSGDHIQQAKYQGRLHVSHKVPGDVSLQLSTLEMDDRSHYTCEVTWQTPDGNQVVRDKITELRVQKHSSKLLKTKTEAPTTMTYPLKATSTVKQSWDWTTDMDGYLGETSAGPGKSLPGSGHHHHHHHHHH

Human VSIG4-L-Fc [4] = molecular target: T2, Human VSIG4-L-Fc; test: ELISA, IgG 50 nM on coated antigen;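 note: Mouse-human chimeric IgG4 antibodies incubated 1 h on plate-coated VSIG4 proteins, bound IgG detected with HRP-labelled anti-human IgG, irrelevant antibody and protein as specificity controls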
Human VSIG4-S-Fc = molecular target: T4, Human VSIG4-S-Fc (human); test: ELISA, IgG 50 nM on coated antigen;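 note: Mouse-human chimeric IgG4 antibodies incubated 1 h on plate-coated VSIG4 proteins, bound IgG detected with HRP-labelled anti-human IgG, irrelevant antibody and protein as specificity controls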
T4 construct: short isoform ECD fused to human Fc1; also called hVSIG4-S
T4 sequence (chain, as listed by the source limits assumed): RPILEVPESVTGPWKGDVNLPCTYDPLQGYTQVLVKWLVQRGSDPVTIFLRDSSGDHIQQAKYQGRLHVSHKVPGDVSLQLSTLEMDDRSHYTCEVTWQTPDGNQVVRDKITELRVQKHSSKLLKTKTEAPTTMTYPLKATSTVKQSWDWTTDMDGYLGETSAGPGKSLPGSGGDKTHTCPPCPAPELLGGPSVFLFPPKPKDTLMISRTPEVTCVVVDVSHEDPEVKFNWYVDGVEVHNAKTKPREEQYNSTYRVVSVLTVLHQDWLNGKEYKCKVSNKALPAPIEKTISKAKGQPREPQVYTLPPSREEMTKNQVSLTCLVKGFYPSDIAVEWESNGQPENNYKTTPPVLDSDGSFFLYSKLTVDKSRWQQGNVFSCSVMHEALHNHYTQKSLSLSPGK

[5] = molecular target: T1, Cynomolgus Monkey VSIG4-L-His; test: ELISA, IgG 50 nM on coated antigen;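 note: Mouse-human chimeric IgG4 antibodies incubated 1 h on plate-coated VSIG4 proteins, bound IgG detected with HRP-labelled anti-human IgG, irrelevant antibody and protein as specificity controls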
Mouse VSIG4-His = molecular target: T5, Mouse VSIG4-His (mouse); test: ELISA, IgG 50 nM on coated antigen;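 note: Mouse-human chimeric IgG4 antibodies incubated 1 h on plate-coated VSIG4 proteins, bound IgG detected with HRP-labelled anti-human IgG, irrelevant antibody and protein as specificity controls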
T5 construct: ECD with His tag; also called mVSIG4
T5 chain: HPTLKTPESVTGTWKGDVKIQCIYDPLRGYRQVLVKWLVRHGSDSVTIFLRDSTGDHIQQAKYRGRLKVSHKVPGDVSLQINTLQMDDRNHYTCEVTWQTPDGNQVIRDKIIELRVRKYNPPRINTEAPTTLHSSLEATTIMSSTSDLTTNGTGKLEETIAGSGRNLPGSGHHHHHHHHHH

Human VSIG4-L-His [6] = molecular target: T6, Human VSIG4-L-His (human, UniProt Q9Y279 20-283); test: BLI, IgG on AHC sensor, antigen 100 nM
T6 construct: long isoform ECD with His tag; also called hVSIG4-L
T6 sequence: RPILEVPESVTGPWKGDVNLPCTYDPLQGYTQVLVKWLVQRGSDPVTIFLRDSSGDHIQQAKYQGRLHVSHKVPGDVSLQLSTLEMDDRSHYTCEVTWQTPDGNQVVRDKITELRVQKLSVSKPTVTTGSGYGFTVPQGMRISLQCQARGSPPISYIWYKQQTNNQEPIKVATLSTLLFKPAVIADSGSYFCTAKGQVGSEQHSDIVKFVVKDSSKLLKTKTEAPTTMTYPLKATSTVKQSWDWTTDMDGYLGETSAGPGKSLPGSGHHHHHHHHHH

[7] = molecular target: T1, Cynomolgus Monkey VSIG4-L-His; test: BLI, IgG on AHC sensor, antigen 100 nM
Human VSIG4-L-His [8] = molecular target: T6, Human VSIG4-L-His; test: BLI (Octet), IgG on AHC sensor, antigen 100 nM
[9] = molecular target: T1, Cynomolgus Monkey VSIG4-L-His; test: BLI (Octet), IgG on AHC sensor, antigen 100 nM
[10] = molecular target: T7, Human VSIG4-L-CHO (human VSIG4 long isoform on CHO-K1 cells) (human, UniProt Q9Y279 20-399); test: flow cytometry, CHO-K1 cells expressing hVSIG4-L
T7 construct: also called hVSIG4-L (flow cytometry)
T7 sequence: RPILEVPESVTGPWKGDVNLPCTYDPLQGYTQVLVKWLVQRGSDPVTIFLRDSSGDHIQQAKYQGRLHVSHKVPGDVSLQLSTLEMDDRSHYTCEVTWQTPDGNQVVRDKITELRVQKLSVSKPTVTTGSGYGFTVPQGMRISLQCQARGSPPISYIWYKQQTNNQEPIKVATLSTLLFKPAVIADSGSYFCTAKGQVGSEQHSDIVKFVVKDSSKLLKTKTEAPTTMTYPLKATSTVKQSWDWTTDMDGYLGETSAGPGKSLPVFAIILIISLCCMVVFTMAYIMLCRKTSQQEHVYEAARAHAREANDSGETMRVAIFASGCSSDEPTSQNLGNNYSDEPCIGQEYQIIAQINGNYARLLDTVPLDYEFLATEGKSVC

Human VSIG4-L-Fc [11] = molecular target: T2, Human VSIG4-L-Fc; test: BLI binning on hVSIG4-L-Fc, competitor 12A08 first;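 note: normalized to binding of second antibody without first competitor antibody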
Human VSIG4-L-Fc [12] = molecular target: T2, Human VSIG4-L-Fc; test: BLI binning on hVSIG4-L-Fc, competitor 12A12 first;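 note: normalized to binding of second antibody without first competitor antibody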
Human VSIG4-L-Fc [13] = molecular target: T2, Human VSIG4-L-Fc; test: BLI binning on hVSIG4-L-Fc, competitor 13H11 first;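 note: normalized to binding of second antibody without first competitor antibody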
Human VSIG4-L-Fc [14] = molecular target: T2, Human VSIG4-L-Fc; test: BLI binning on hVSIG4-L-Fc, competitor 14C05 first;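 note: normalized to binding of second antibody without first competitor antibody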
Human VSIG4-L-Fc [15] = molecular target: T2, Human VSIG4-L-Fc; test: BLI binning on hVSIG4-L-Fc, competitor 14D12 first;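 note: normalized to binding of second antibody without first competitor antibody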
Human VSIG4-L-Fc [16] = molecular target: T2, Human VSIG4-L-Fc; test: BLI binning on hVSIG4-L-Fc, competitor 15A06 first;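 note: normalized to binding of second antibody without first competitor antibody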
Human VSIG4-L-Fc [17] = molecular target: T2, Human VSIG4-L-Fc; test: BLI binning on hVSIG4-L-Fc, competitor 15C03 first;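 note: normalized to binding of second antibody without first competitor antibody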
Human VSIG4-L-Fc [18] = molecular target: T2, Human VSIG4-L-Fc; test: BLI binning on hVSIG4-L-Fc, competitor 15C04 first;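 note: normalized to binding of second antibody without first competitor antibody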
Human VSIG4-L-Fc [19] = molecular target: T2, Human VSIG4-L-Fc; test: BLI binning on hVSIG4-L-Fc, competitor 16E03 first;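 note: normalized to binding of second antibody without first competitor antibody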
Human VSIG4-L-Fc [20] = molecular target: T2, Human VSIG4-L-Fc; test: BLI binning on hVSIG4-L-Fc, competitor 16E10 first;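 note: normalized to binding of second antibody without first competitor antibody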
Human VSIG4-L-Fc [21] = molecular target: T2, Human VSIG4-L-Fc; test: ligand competition ELISA (FJB), blocked ligand C3b
Human VSIG4-L-Fc [22] = molecular target: T2, Human VSIG4-L-Fc; test: ligand competition ELISA (FJB), blocked ligand iC3b
[23] = molecular target: T7, Human VSIG4-L-CHO (human VSIG4 long …); test: flow cytometry (FJB), 200 nM mAb, huVSIG4-L CHO-K1 cells
[24] = molecular target: T7, Human VSIG4-L-CHO (human VSIG4 long …); test: flow cytometry (FJB), 200 nM mAb, huVSIG4-L CHO-K1 over parental CHO-K1
Human VSIG4-L-His [25] = molecular target: T6, Human VSIG4-L-His; test: SPR (FJB)
Human VSIG4-L-Fc [26] = molecular target: T2, Human VSIG4-L-Fc; test: ligand competition ELISA (FJB), blocked ligand C3b, 200 nM mAb
Human VSIG4-L-Fc [27] = molecular target: T2, Human VSIG4-L-Fc; test: ligand competition ELISA (FJB), blocked ligand iC3b, 200 nM mAb
[28] = molecular target: T1, Cynomolgus Monkey VSIG4-L-His; test: ELISA, IgG 50 nM on coated antigen; ELISA, bivalent IgG on plate-coated cyVSIG4-L (avid format)

B1: 13H11 mouse/human chimeric IgG4 (S228P) kappa (antibody, V domains shown)
VH: QIQLVQSGPELKKPGETVKISCKASGYTFENFGMNWVKQAPGKGLKWMGWINTYTGEATYADDFKGRFAFSLETSASTAYLQINNLKNEDTATYFCARDGGFRHFDVWGAGTTVTVSS
VL: ETTVTQSPASLSVATGEKVTIRCITSTDIDDDMNWYQQKPGEPPKLLISEGNTLRPGVPSRFSSSGYGTDFVFTIENMLSEDVADYYCLQSDNLPLTFGAGTKLELKR
[1]
  Kd: 20.1 nM
Human VSIG4-L-Fc [2]
  Percent Blocking C3b: 75%
Human VSIG4-L-Fc [3]
  Percent Blocking iC3b: 78%
Human VSIG4-S-His
  binding result: no binding (tested: 100 nM)
Human VSIG4-L-Fc [4]
  ELISA OD450: 4.27 OD450
Human VSIG4-S-Fc
  ELISA OD450: 0.44 OD450
[5]
  ELISA OD450: 4.37 OD450
Mouse VSIG4-His
  ELISA OD450: 0.048 OD450
Human VSIG4-L-His [6]
  KD relative to parental chimera: 1 fold
[7]
  KD relative to parental chimera: 1 fold
Human VSIG4-L-His [8]
  Kd: 50.6 nM
[9]
  Kd: 20.3 nM
[10]
  EC50: 1.2 nM
Human VSIG4-L-Fc [11]
  normalized maximum binding nm shift: 0.7 normalized
Human VSIG4-L-Fc [12]
  normalized maximum binding nm shift: 0.74 normalized
Human VSIG4-L-Fc [13]
  normalized maximum binding nm shift: 0.09 normalized
Human VSIG4-L-Fc [14]
  normalized maximum binding nm shift: 0.74 normalized
Human VSIG4-L-Fc [15]
  normalized maximum binding nm shift: 0.69 normalized
Human VSIG4-L-Fc [16]
  normalized maximum binding nm shift: 0.51 normalized
Human VSIG4-L-Fc [17]
  normalized maximum binding nm shift: 0.86 normalized
Human VSIG4-L-Fc [18]
  normalized maximum binding nm shift: 0.68 normalized
Human VSIG4-L-Fc [19]
  normalized maximum binding nm shift: 0.72 normalized
Human VSIG4-L-Fc [20]
  normalized maximum binding nm shift: 0.95 normalized
Human VSIG4-L-Fc [21]
  IC50: ~7 nM
Human VSIG4-L-Fc [22]
  IC50: 440 nM
[23]
  Binding (200 nM) MFI: 54300 MFI
[24]
  Binding (200 nM) Fold-Over-Parental: 140 fold

B2: 15A06 mouse/human chimeric IgG4 (S228P) kappa (antibody, V domains shown)
VH: QVQMKQSGPSLVRPSQTLSLTCSVTGDSITSGYWNWIRKFPGDKFEYLGYISYSGFTYYNPSLKSRVSITRDTSKNQYYLQLHSVTTEDTATYYCASSKYGSSLGFPYWGQGTLVTVSA
VL: DVVMTQTPLSLPVSLGDQASISCRSSQSLVHSNGNTYLHWYLQKPGQSPKLLIYKVSNRFSGVPDRFSGSGSGTDFTLKISRVEAEDLGVYFCSQSTHVPFTFGSGTKLEIKR
Human VSIG4-L-His [25]
  Kd: 15 nM
[1]
  Kd: 14.3 nM
Human VSIG4-S-His
  binding result: no binding (tested: 100 nM)
Human VSIG4-L-Fc [4]
  ELISA OD450: 4.38 OD450
Human VSIG4-S-Fc
  ELISA OD450: 0.24 OD450
Mouse VSIG4-His
  ELISA OD450: 0.067 OD450
Human VSIG4-L-His [8]
  Kd: 28.5 nM
[10]
  EC50: 2.4 nM
Human VSIG4-L-Fc [11]
  normalized maximum binding nm shift: 0.88 normalized
Human VSIG4-L-Fc [12]
  normalized maximum binding nm shift: 0.91 normalized
Human VSIG4-L-Fc [13]
  normalized maximum binding nm shift: 0.53 normalized
Human VSIG4-L-Fc [14]
  normalized maximum binding nm shift: 0.8 normalized
Human VSIG4-L-Fc [15]
  normalized maximum binding nm shift: 0.79 normalized
Human VSIG4-L-Fc [16]
  normalized maximum binding nm shift: 0.12 normalized
Human VSIG4-L-Fc [17]
  normalized maximum binding nm shift: 0.79 normalized
Human VSIG4-L-Fc [18]
  normalized maximum binding nm shift: 0.15 normalized
Human VSIG4-L-Fc [19]
  normalized maximum binding nm shift: 0.73 normalized
Human VSIG4-L-Fc [20]
  normalized maximum binding nm shift: 0.95 normalized
[23]
  Binding (200 nM) MFI: 23900 MFI
Human VSIG4-L-Fc [26]
  % Block C3b (200 nM mAb): -24%
Human VSIG4-L-Fc [27]
  % Block iC3b (200 nM mAb): 2%
[24]
  Binding (200 nM) Fold-Over-Parental: 63 fold
[28]
  ELISA OD450: 4.35 OD450
